Patent publication US20250129135A1, “Multi-Agonist and Use Thereof” (priority 2021, published 2025)
Substitutions are numbered along the chain they refer to.

T1: human GIP receptor (human, UniProt P48546 22-466)
T1 sequence (looked up): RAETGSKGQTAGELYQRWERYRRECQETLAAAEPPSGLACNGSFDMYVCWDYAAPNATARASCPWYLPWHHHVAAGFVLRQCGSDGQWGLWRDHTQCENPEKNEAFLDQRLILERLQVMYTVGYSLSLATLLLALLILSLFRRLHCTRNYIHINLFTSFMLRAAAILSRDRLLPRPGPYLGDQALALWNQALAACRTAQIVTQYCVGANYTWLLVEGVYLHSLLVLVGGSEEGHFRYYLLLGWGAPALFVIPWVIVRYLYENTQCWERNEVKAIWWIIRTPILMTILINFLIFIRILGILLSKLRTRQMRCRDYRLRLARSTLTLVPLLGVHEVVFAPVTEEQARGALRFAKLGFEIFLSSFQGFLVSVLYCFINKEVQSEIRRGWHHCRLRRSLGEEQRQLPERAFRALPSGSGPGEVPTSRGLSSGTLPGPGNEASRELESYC

B1: Compound 3 (peptide)
peptide: YXQGTXTSDYSIXLDKKAQXAFIEYLLESHPSSGAPPXS
modifications: Aib at 2; αMeF at 6; αMeL at 13; Lys 17 side chain AEEAc-AEEAc-γGlu-CO(CH2)18COOH; Aib at 20; Ac3c at 38; C-terminal amide (NH2)
B2: Compound 10 (peptide)
peptide: B1 peptide with X13F, Y25F
modifications: Aib at 2; αMeF(2F) at 6; Lys 17 side chain AEEAc-AEEAc-γGlu-CO(CH2)18COOH; Aib at 20; Ac3c at 38; C-terminal amide (NH2)
B3: Compound 4 (peptide)
peptide: B1 peptide with X13F, S29G, H30G
modifications: Aib at 2; αMeF(2F) at 6; Lys 17 side chain AEEAc-AEEAc-γGlu-CO(CH2)18COOH; Aib at 20; Ac3c at 38; C-terminal amide (NH2)
B4: Compound 9 (peptide)
peptide: B1 peptide with X13F, Y25F, S29T, H30G
modifications: Aib at 2; αMeF(2F) at 6; Lys 17 side chain AEEAc-AEEAc-γGlu-CO(CH2)18COOH; Aib at 20; Ac3c at 38; C-terminal amide (NH2)
B5: Compound 13 (peptide)
peptide: B1 peptide with X13F, S29T, H30G, X38P
modifications: Aib at 2; αMeF at 6; Lys 17 side chain AEEAc-AEEAc-γGlu-CO(CH2)18COOH; Aib at 20; C-terminal amide (NH2)
B6: Compound 6 (peptide)
peptide: B1 peptide with Q3H, S29X, A35Q, X38P
modifications: Aib at 2; αMeF(2F) at 6; αMeL at 13; Lys 17 side chain AEEAc-AEEAc-γGlu-CO(CH2)18COOH; Aib at 20; Aib at 29; C-terminal amide (NH2)
B7: Compound 36 (peptide)
peptide: YXQGTXTSDYSIXLDKKAQXAFIEFLLEGGPSSXHPPPS
modifications: Aib at 2; αMeF at 6; αMeL at 13; Lys 17 side chain AEEAc-AEEAc-γGlu-CO(CH2)18COOH; Aib at 20; Aib at 34; C-terminal amide (NH2)
B8: Compound 5 (peptide)
peptide: B7 peptide with X13F, X34G, H35A, P38X
modifications: Aib at 2; αMeF(2F) at 6; Lys 17 side chain AEEAc-AEEAc-γGlu-CO(CH2)18COOH; Aib at 20; Ac3c at 38; C-terminal amide (NH2)
B9: Compound 12 (peptide)
peptide: B7 peptide with X13F, G29T, X34G, H35A
modifications: Aib at 2; αMeF at 6; Lys 17 side chain AEEAc-AEEAc-γGlu-CO(CH2)18COOH; Aib at 20; C-terminal amide (NH2)
B10: Compound 42 (peptide)
peptide: B7 peptide with X13L, G29S, G30H, P38X
modifications: Aib at 2; αMeF at 6; Lys 17 side chain AEEAc-AEEAc-γGlu-CO(CH2)18COOH; Aib at 20; Aib at 34; Ac3c at 38; C-terminal amide (NH2)
B11: Compound 14 (peptide)
peptide: B7 peptide with G29T, X34G, H35A
modifications: Aib at 2; αMeF at 6; αMeL at 13; Lys 17 side chain AEEAc-AEEAc-γGlu-CO(CH2)18COOH; Aib at 20; C-terminal amide (NH2)
B12: Compound 37 (peptide)
peptide: B7 peptide with G30R
modifications: Aib at 2; αMeF at 6; αMeL at 13; Lys 17 side chain AEEAc-AEEAc-γGlu-CO(CH2)18COOH; Aib at 20; Aib at 34; C-terminal amide (NH2)
B13: Compound 39 (peptide)
peptide: B7 peptide with G29T, G30R
modifications: Aib at 2; αMeF(2F) at 6; αMeL at 13; Lys 17 side chain AEEAc-AEEAc-γGlu-CO(CH2)18COOH; Aib at 20; Aib at 34; C-terminal amide (NH2)
B14: Compound 43 (peptide)
peptide: B1 peptide with G34X, A35H
modifications: Aib at 2; αMeF(2F) at 6; αMeL at 13; Lys 17 side chain AEEAc-AEEAc-γGlu-CO(CH2)18COOH; Aib at 20; Aib at 34; Ac3c at 38; C-terminal amide (NH2)
B15: Compound 8 (peptide)
peptide: B7 peptide with F25Y, G29T, X34G, H35Q
modifications: Aib at 2; αMeF at 6; αMeL at 13; Lys 17 side chain AEEAc-AEEAc-γGlu-CO(CH2)18COOH; Aib at 20; C-terminal amide (NH2)
B16: Compound 7 (peptide)
peptide: B7 peptide with F25Y, G29T, X34G, H35X
modifications: Aib at 2; αMeF at 6; αMeL at 13; Lys 17 side chain AEEAc-AEEAc-γGlu-CO(CH2)18COOH; Aib at 20; Aib at 35; C-terminal amide (NH2)
B17: Compound 40 (peptide)
peptide: B7 peptide with G29S, G30H, P38X
modifications: Aib at 2; αMeF(2F) at 6; αMeL at 13; Lys 17 side chain AEEAc-AEEAc-γGlu-CO(CH2)18COOH; Aib at 20; Aib at 34; Ac3c at 38; C-terminal amide (NH2)
B18: Compound 41 (peptide)
peptide: B7 peptide with X13L, G29S, G30H, P38X
modifications: Aib at 2; αMeF(2F) at 6; Lys 17 side chain AEEAc-AEEAc-γGlu-CO(CH2)18COOH; Aib at 20; Aib at 34; Ac3c at 38; C-terminal amide (NH2)

Each molecule was assayed against human GCG receptor (human, UniProt P47871 26-477) (assay: cell-based or functional assay). Settings: not given.
human GCG receptor, sequence (P47871 26-477): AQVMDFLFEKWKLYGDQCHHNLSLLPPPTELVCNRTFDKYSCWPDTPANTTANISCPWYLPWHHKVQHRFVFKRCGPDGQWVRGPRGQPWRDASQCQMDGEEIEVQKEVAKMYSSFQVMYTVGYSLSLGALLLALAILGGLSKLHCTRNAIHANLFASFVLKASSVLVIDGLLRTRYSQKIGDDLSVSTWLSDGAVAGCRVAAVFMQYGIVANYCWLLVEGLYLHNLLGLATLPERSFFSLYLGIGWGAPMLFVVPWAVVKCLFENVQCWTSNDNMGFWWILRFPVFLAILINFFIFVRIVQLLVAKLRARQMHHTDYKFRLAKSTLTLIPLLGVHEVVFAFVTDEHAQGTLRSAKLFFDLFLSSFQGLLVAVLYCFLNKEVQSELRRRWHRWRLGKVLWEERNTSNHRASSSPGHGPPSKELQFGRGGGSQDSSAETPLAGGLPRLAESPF

Molecule	cAMP EC50, HEK-293 cells stably overexpressing human GCG R	cAMP Rel. A (%) against human GCG, human GCG R cells
B1	0.12 nM	47.5%
B2	0.076 nM	75%
B3	0.071 nM	80.3%
B4		91.9%
B5		110%
B6	0.058 nM	98.3%
B7		127%
B8		81.4%
B9		13.7%
B10	0.495 nM	11.5%
B11		50%
B12	0.082 nM	69.5%
B13	0.153 nM	37.2%
B14	0.127 nM	44.9%
B15	0.071 nM	80.3%
B16	0.058 nM	98.3%
B17	0.167 nM	34.1%
B18	0.081 nM	70.4%

The molecules below were run against human GLP-1 receptor (human, UniProt P43220 24-463) (assay: cell-based or functional assay). Settings: not given.

Molecule	cAMP Rel. A (%) against human GLP-1 (7-37), human GLP-1 R cells	cAMP EC50, HEK-293 cells stably overexpressing human GLP-1 R
B1	100%	
B2	93.6%	0.047 nM
B3	107%	
B4	259%	0.017 nM
B5	367%	0.012 nM
B6	220%	0.02 nM
B7	176%	0.025 nM
B8	200%	0.022 nM
B9	314%	0.014 nM
B10	489%	0.009 nM
B11	440%	0.01 nM
B12	157%	0.028 nM
B13	56.4%	0.078 nM
B14	440%	0.01 nM
B15	152%	
B16	440%	0.01 nM
B17	275%	0.016 nM
B18	367%	0.012 nM

These molecules were tested against T1, human GIP receptor (assay: cell-based or functional assay). Settings: not given.

Molecule	cAMP EC50, CHO cells stably overexpressing human GIP R	cAMP Rel. A (%) against human GIP, human GIP R cells
B1	0.024 nM	754%
B2	0.021 nM	862%
B3	0.057 nM	318%
B4		385%
B5		566%
B6	0.014 nM	1290%
B7		2590%
B8		369%
B9		221%
B10	0.07 nM	259%
B11	0.011 nM	1650%
B12	0.015 nM	1210%
B13	0.015 nM	1210%
B14	0.041 nM	441%
B15		1510%
B16	0.013 nM	1390%
B17	0.12 nM	151%
B18	0.073 nM	248%

These molecules were tested on C57 BL/6J DIO mice (assay: In vivo pharmacodynamics in high-fat diet induced obesity (DIO) mice). Settings: Table 9-1; 3 nmol/kg; Day 15; Mean±SEM.
Parameters: species or system mouse
Text: High-fat diet induced obesity (DIO) mice have characteristics such as obesity, elevated blood sugar, insulin resistance, and lipid abnormalities, all of which are very significant metabolic syndromes similar to a human body. The effects of the compounds of the present application on body weight, food intake, blood sugar, and lipids in C57 BL/6J DIO mice were studied.
Obesity was induced in mice by feeding with a high-fat diet (60 kcal % of calories from fat). […] After grouping, one animal was raised in each cage for one week, during which each of the animals was injected subcutaneously (S.C.) with a solvent (1×PBS, 5 ml/kg) to pre-adapt the experimental operation process.
After the preparation of animals, vehicle control or compounds were administered to groups of animals by subcutaneous injection, in which the compounds were dissolved in 1×PBS, the dosage was 5 ml/kg, and the administration operation was started at 9:00 am and conducted once every three days (Q3D) for 15 days. Throughout the entire experimental study, animal weight and food intake were measured daily before administration, and compared with initial weight and food intake of the same animal before administration to calculate a percentage change in animal weight (%) and cumulative food intake, so as to evaluate the impact of compounds on changes in body weight and food intake.
At the end point of the experiment (Day 15), the body weight of the mice was measured, and then fasting blood glucose was measured by taking blood from the tail tip of broken tail without anesthesia. After the blood collection, the animals were anesthetized with CO2 and euthanized. Then, blood was taken from the heart and plasma was separated by centrifugation. The plasma was used to measure total cholesterol (TC), low-density lipoprotein cholesterol (LDL-C), triglycerides (TG), and blood insulin content. The liver was separated for homogenization, and then centrifuged to obtain the supernatant for determining triglyceride content in the liver.
All results were expressed in Mean±SEM, and the results were analyzed by one-way ANOVA using GraphPad Prism 5 software, followed by Dunnett's post hoc test compared to the Vehicle control group. The difference at the p<0.05 level was considered statistically significant.

Molecule	Liver TG
CC[C@H](C)[C@H](NC(=O)[C@H](Cc1ccccc1)NC(=O)[C@H](C)NC(=O)C(C)(C)NC(=O)[C@H](CCC(N)=O)NC(=O)[C@H](C)NC(=O)[C@H](CCCCNC(=O)COCCOCCNC(=O)COCCOCCNC(=O)CC[C@H](NC(=O)CCCCCCCCCCCCCCCCCCC(=O)O)C(=O)O)NC(=O)[C@H](CCCCN)NC(=O)[C@H](CC(=O)O)NC(=O)[C@H](CC(C)C)NC(=O)[C@](C)(CC(C)C)NC(=O)[C@@H](NC(=O)[C@H](CO)NC(=O)[C@H](Cc1ccc(O)cc1)NC(=O)[C@H](CC(=O)O)NC(=O)[C@H](CO)NC(=O)[C@@H](NC(=O)[C@](C)(Cc1ccccc1F)NC(=O)[C@@H](NC(=O)CNC(=O)[C@H](CCC(N)=O)NC(=O)C(C)(C)NC(=O)[C@@H](N)Cc1ccc(O)cc1)[C@@H](C)O)[C@@H](C)O)[C@@H](C)CC)C(=O)N[C@@H](CCC(=O)O)C(=O)N[C@@H](Cc1ccccc1)C(=O)N[C@@H](CC(C)C)C(=O)N[C@@H](CC(C)C)C(=O)N[C@@H](CCC(=O)O)C(=O)NCC(=O)NCC(=O)N1CCC[C@H]1C(=O)N[C@@H](CO)C(=O)N[C@@H](CO)C(=O)NC(C)(C)C(=O)N[C@@H](Cc1c[nH]cn1)C(=O)N1CCC[C@H]1C(=O)N1CCC[C@H]1C(=O)N1CCC[C@H]1C(=O)N[C@@H](CO)C(N)=O [Compound 24]	30.7 ± 1.31 mg
